Test results reported in patent publication US10877024B2, “Methods of determining interferon having direct inhibitory effects on tumors and uses thereof” (SUPERLAB FAR EAST LIMITED, priority 2015, dated 2020).

Tests used:
Assay type in all cases: cell-based, human
[1] = test system: CD24; experiment: qPCR of Wnt signaling downstream gene in A549 cells; conditions: 10 μg/ml, 24 hr
Method: (§1) After 24 hr of treatment, cellular total mRNA was isolated using TRIZOL Reagent and cDNA was synthesized and further subjected to qPCR, using specific primers of four (4) Wnt signaling downstream genes, Axin2, CD24, Survivin and ID2. Experiments were conducted in triplicate and normalized with the Mock group.
(§2) Total mRNA was isolated using TRIZOL Reagent (Invitrogen, Carlsbad, Calif.) according to the manufacturer's instructions. Complementary DNA (cDNA) was synthesized using a RT-PCR Kit (Cat #:FSQ-101, TOYOBO, Japan) according to the manufacturer's instructions and then subjected to qPCR with a SYBR Green PCR kit (Cat #: QPK-201, TOYOBO, Japan). The primers of the four Wnt pathway target genes were as follows: Axin2 sense primer: 5′-[…]-3′ (SEQ ID NO:8) and antisense primer: 5′-[…]-3′(SEQ ID NO: 9); CD24 sense primer: 5′-[…]-3′ (SEQ ID NO: 10) and antisense primer: 5′-[…]-3′(SEQ ID NO: 11); Survivin sense primer: 5′-[…]-3′ (SEQ ID NO: 12) and antisense primer: 5′-[…]-3′ (SEQ ID NO: 13) and ID2 sense primer: 5′-[…]-3′ (SEQ ID NO: 14) and antisense primer: 5′-[…]-3′(SEQ ID NO: 15).
(§3) The amplification protocol consisted of incubations at 95° C. for 1 minute, 40 cycles (95° C. for 15 seconds, 60° C. for 15 seconds, 72° C. for 30 seconds). Incorporation of the SYBR Green dye into PCR products was monitored in real time with a Bio-Rad Detection System and subsequently analyzed using Bio-Rad CFX manager 2.1 software. The samples were pooled for each condition and run in duplicate. Treated samples were compared to Mock using the 2^−ΔΔCt method and plotted as fold change. GAPDH was used as the normalization control.

[2] = test system: Axin2; experiment: as above; conditions: 10 μg/ml, 24 hr
Method: as §1, §2, §3

[3] = test system: ID2; experiment: as above; conditions: 10 μg/ml, 24 hr
Method: as §1, §2, §3

[4] = test system: Survivin; experiment: as above; conditions: 10 μg/ml, 24 hr
Method: as §1, §2, §3

[5] = test system: DKK-3; experiment: qPCR of tumor suppressor gene; conditions: A549 cells, 10 mcg/ml, 24 hr
Method: After 24 hr of treatment, total cellular mRNA was isolated using TRIZOL Reagent, and cDNA was synthesized, and further subjected to qPRC using specific primers for DKK3, KLF4 and BATF2.
The experiment was conducted in triplicate and normalized with the mock control group.

[6] = test system: different cancer cells; experiment: Cell viability, Am-Blue assay, 48 hr, statements over all cell lines; conditions: any of the cancer cell lines
Method: Cell culture and reagents. human lung cancer cell lines (A549, H1299, H460, Calu-1), human liver cancer cell lines (SMMC-7721, Huh-7, CL-1), human cervical carcinoma cell line (Hela), human breast cancer cell line (MDA-MB-231), human pancreatic cancer cell line (PANC-1) and human colon cancer cell lines (SW620, HT29, SW480) were purchased from the Shanghai Cell Collection (Shanghai, China). The above cell lines were cultured in 5% CO2 at 37° C. in corresponding complete growth medium formulated by the Shanghai Cell Collection, with 10% heat-inactivated fetal bovine serum (Biochrom, Germany), supplemented with 4 mM glutamine, 50 U/ml penicillin and […] streptomycin.
About 5×10^3 cells in 100 μl complete medium per well were plated in 96-well plates, incubated overnight, and then treated with IFN α-2b or rSIFN-co at concentrations of 100 μg/ml, 50 μg/ml, 25 μg/ml, 12.5 μg/ml, 6.25 μg/ml, 3.13 μg/ml, 1.56 μg/ml, 0.78 μg/ml, 0.39 μg/ml, and 0.20 μg/ml, respectively, for about 48 hr, at which time the cells were harvested for analysis. The cell viability rate was evaluated by SunBio Am-Blue assay kit (Cat #: SBAB8025, Shanghai SBO Medical Biotechnology Co., Ltd, Shanghai, China). […] After shaking the plates for 30 seconds, the absorbance for each well was read at both 570 nm and 595 nm by a Thermo Scientific Microplate Reader (Thermon Fisher Scientific, Inc., Lowell, Mass.). […]

[7] = test system: beta-catenin; experiment: Beta-catenin protein level by Western Blot; conditions: 10 mcg/ml, 24, 48, 72 hr
Method: Cancer cells, A549 and Sw480, were cultured to about 85% confluency and put into 6 well plates. […] After treatment, the cells were harvested for Western Blot to detect the beta-catenin protein level, using its specific antibody, with GAPDH as endogenous loading control. The experiment was conducted in triplicate.
To determine the expression of various proteins, cells were harvested from the plates and total cellular protein were extracted using extraction reagents (Cat #: P0013) according to the manufacturer's protocol (Beyotime, China). The total protein concentration was determined by the Lowry Protein Assay kit (Bio-Rad, USA). […] The membranes were blocked with 5% skimmed milk, bovine serum albumin, 10 mmol/L Tris-HCl at pH 8.0, 150 mmol/L NaCl, and 0.05% Tween 20 overnight at 4° C. The blocked membranes were then incubated with primary antibodies (1:1000 dilutions), followed by secondary HRP-conjugated antibodies. Blots were visualized using Luminescence/Fluorescence Imaging LAS4000 System (GE Healthcare Life Sciences, USA) with super signal west pico chemiluminescent substrate kit (Thermo scientific, USA).
For this determination, the primary antibodies used were mouse monoclonal anti-beta-catenin antibodies (1:1000; Santa Cruz Technology, Santa Cruz, Calif.) and mouse monoclonal anti-GAPDH antibodies (1:2000) (Kangwei Biotechnology, China). […]

B1: rSIFN-co: Recombinant super-compound interferon; amino acid sequence SEQ ID NO: 1 (same as INFERGEN), encoded by novel nucleotide sequence SEQ ID NO: 2 (protein)
chain: MCDLPQTHSLGNRRALILLAQMRRISPFSCLKDRHDFGFPQEEFDGNQFQKAQAISVLHEMIQQTFNLFSTKDSSAAWDESLLEKFYTELYQQLNDLEACVIQEVGVEETPLMNVDSILAVKKYFQRITLYLTEKKYSPCAWEVVRAEIMRSFSLSTNLQERLRRKE
modifications: Amino acid sequence of recombinant interferon
In the case of B1, the “relative expression level of CD24 mRNA (Mock control set at 1)” value [1] is reported as “about 0.4”, the “relative expression level of Axin2 mRNA (Mock control set at 1)” value [2] is reported as “about 0.4” and the “relative expression level of ID2 mRNA (Mock control set at 1)” value [3] is reported as “about 0.4”. For the same molecule, the “relative expression level of Survivin mRNA (Mock control set at 1)” value [4] was “about 0.4”, the “relative mRNA expression level of DKK-3” value [5] was “dramatically increased” and the “cell viability at 100 mcg/ml” value [6] was “cell viability could not be detected”. The beta-catenin protein level ([7]; A549 cells) was “dramatically decreased beta-catenin protein level after treatment for 2 days (48 hr)” and the beta-catenin protein level ([7]; SW480 cells) was “obvious after 72 hours of treatment”.
